In patent US20050084449A1:

The binders below were run against TIM-1 antigen (soluble extracellular domain of TIM-1, CG57008-02, with a V5-HIS tag) (human) (UniProt Q96D42) (assay: BIAcore 2000, mAb captured on goat anti-human surface, TIM-1 antigen injected, 25 C).

| Kd [nM] | Binder |
| --- | --- |
| 3.64 | anti-TIM-1 mAb 1.29 (antibody, human IgG2, V domains shown) VH: QVQLQESGPGLVKPSETLSLTCTVSGGSVSSGGYYWSWIRQPPGKGLEWIGFIYYTGSTNYNPSLKSRVSISVDTSKNQFSLKLSSVTAADAAVYYCARDYDWSFHFDYWGQGTLVTVSS VL: DIQMTQSPSSLSASIGDRVTITCRASQGIRNDLGWYQQKPGKAPKRLIYAASSLQSGVPSRFSGSGSGTEFTLTISSLQPEDFATYYCLQHNSYPLTFGGGTKVEIKR |
| 1 | anti-TIM-1 mAb 2.61 (antibody, human IgG4, V domains shown) VH: QVQLVEAGGGVVQPGRSLRLSCAASGFTFRSYGMHWVRQAPGKGLKWVAVIWYDGSNKYYTDSVKGRFTISRDNSKNTLYLQMNSLRAEDTAVYYCVRDYYDNSRHHWGFDYWGQGTLVTVSS VL: DIQMTQSPSSRCASVGDRVTITCRASQGIRNDLAWYQQKPGKAPKRLIYAASSLQSGVPSRFSGSRSGTEFTLTISSLQPEDFAAYYCLQHNSYPPSFGQGTKLEIKR |
| 2.71 | anti-TIM-1 mAb 2.70 (antibody, V domains shown) VH: QVQLVESGGGVVQPGRSLRLSCAASGFIFSRYGMHWVRQAPGKGLKWVAVIWYDGSNKLYADSVKGRFTISRDNSKNTLYLQMNSLRAEDTAVYYCARDYYDNSRHHWGFDYWGQGTLVTVSS VL: DIVMTQTPLSLPVTPGEPASISCRSSRSLLDSDDGNTYLDWYLQKPGQSPQLLIYTLSYRASGVPDRFSGSGSGTDFTLKISRVEAEDVGVYYCMQRVEFPITFGQGTRLEIKR |
| 2.78 | anti-TIM-1 mAb 1.37 (antibody, human IgG2, V domains shown) VH: EVQLVESGGGLVQPGGSLRLSCAASGFTFTNYWMSWVRQAPGKGLEWVANIQQDGSEKYYVDSVRGRFTISRDNAKNSLYLQMNSLRAEDSAVYYCARWDYWGQGTLVTVSS VL: DIVMTQTPLSSTVILGQPASISCRSSQSLVHSDGNTYLNWLQQRPGQPPRLLIYMISNRFSGVPDRFSGSGAGTDFTLKISRVEAEDVGVYYCMQATESPQTFGQGTKVEIKR |
